A short description of the data set: label from the status in PepcDB records.

The values that follow come from a protein production outcome set (Wang et al. 2014).

As to “MSLSLPLFYAPDIEQSDRLPDDEAGHILRVLRMQAGDRLRLTDGRGSFFDAVIETADRKSCYVSVCGQESWQKPWRDRITIAIAPTKQSERMEWMLEKLVEIGVDEVVFIESEHSERRRIKAERLERIAISAMKQSLKASFPVIRVNIPIQTVIADTPKAAVRLIAYVDEAVRAEITQGRGYPSDFYHVGQDVLILIGPEGDFSPSEVESALLAGFAPVSLGESRLRTETAGLVACQWIHTLQACCRIGEGHHHHHH”, the protein production entry was “not failed”.
The result for “MSLSNVQVNSSQRDEDSFIKGVKDCIPTLLGYLSIGIAAGVIQKTAGLSIAEITLMSLILYAGSGQFIAAGMIATSSSLTAIIITIFFVNLRHILLSAALAPYFRHLSPFRNMLVGSLLTDETFGVAISEAAKKKQISERWMHGLNITAYINWLVANLAGAFLAQWISNPEEFGLGFALPAMFIGILILTMLGRSTIKLDIIVAIIAVVIAVGSSFMLSSSMGVIVATIIASTIGMVVEKWK” reads “failed”; that for “MSLSRRLTMHWFAQAPANIALIKYMGKKDENSNLPDNSSLSYTLSNLLSSVKLEKLPTKKDIWEPLTIPGAPEFNLSVEAQKRFIDHLVRLKEYFGYVGGFLIQSSNNFPHSSGLASSASSFAALTKCASIALSELTQKPLPSIDEQAQLSRLGSGSSCRSFYAPWALWTGDKVSAIDLPYKDLLHQVIVISSQEKEIPSRVAHKLVKTSPFYETRSERAEANLKLLLNAFENKDWTSIYQICWHEFLDMHQLFKTCEKPFSYITDNTLHILSVIEKFWNEKGDGPVVTMDAGPNVHLLYRSDQTDLARQFKSDHLVGNYDVLEGHHHHHH”, “not failed”; that for “MSLSTWISYTIACILLISPPGPTVTYLITTSMTHGKKTAYEIVWGSFWGGLVCLILSFIGIGAILKTSGTLYAILRLLGIAYLIYLGIKSFLDANKVKDKTEKMVPPEKGEAFKNGFLLIFLNPKNIIFFASFLPQFINHNSPFLLQTTILSLTYLIVGLINDYLYSFFASNIGNVLGKHSEKWIAYIGGVAMILSAIIVVFQNF”, “failed”.
To “MSLSVMFDPQSYPYPSRRNVVYAKNGMVATSQPLAAQAGLDILKAGGNAIDAAIATATALTVLEPTSNGIGSDAFALVWTKGKLHGLNGSGRAPMSLTMEAVKAKGYEQELPPYGVIPVTVPGAPGAWAELAKMYGNLPLAASLAPAIRYAEEGYPVTPTLAKYWKAAYDRFKTEWTDDVYQPWFDTFAPKGRAPRVGEVWRSQGHADTLRSIAESNGESFYRGELADQIHAFFDKHGGYLTKEDLACYRPEWVEPISIDYRGYRVWEIPPNGQGLVALEALNIVKGFEFYHKDTVDTYHKQIEAMKLAFVDGMKYVTEPSDMSVSVEQLLSDEYATERRKEIGEQALTPEPGTPPRGGTVYLATADGDGNMVSFIQSNYMGFGSGVVVPGTGIAMQNRGHNFSLDPNHDNALKPGKRTYHTIIPGFLTKNDQPIGPFGVMGGFMQPQGHMQVMMNTIDFGLNPQAALDAPRWQWTNGKQVQVEPTFPVDIAQALVRRGHKIQVVLDEGAFGRGQIIWRDPTTGVLAGGTEPRTDGQVAAWEGHHHHHH” belongs “not failed”.
Turning to “MSLTEPRIVATYHIASDAERIEQRALALAIEQSVECPLEAIGDPAIVANIVGRVEDVAELQPGRYAVRIGLAAATAPAEPGQLLNMLFGNSSIQPDIALADVELPAHYLTAFGGPRVGLAGIRTLTGAQSRALTASALKPQGLSPAALASIAHQLALGGVDLIKDDHGLADQAFSPFAERAAAVGKAVREANAARGGRTLYAPNISGTLDDMRRQLGVIRDEGIGAVLVAPMIVGVSNFHAIVKEAAGLVVVAHPAMAGAAKIAAPLLLGRLFRLFGADATVFPNYGGRFAYSTASCLALAQAARDPFGKLNACIPTPAGGIMLQRVNELLRFYGQDVMLLIGGSLLASRERLTEQASRFVNKVADYGQREGHHHHHH”, the protein production entry is recorded as “not failed”.
To “MSLTEYVHGYSEREALRLSEQAETLEKLLHHDTVYPPGAKVLEAGCGIGAQTVILAKNNPDAEITSIDISPESLEKARENTEKNGIKNVKFLQANIFSLPFEDSSFDHIFVCFVLEHLQSPEEALKSLKKVLKPGGTITVIEGDHGSCYFHPEGKKAIEAWNCLIRVQAYMKGNSLVGRQIYPLLQESGFEKIRVEPRMVYIDSSKPELVDGFILKTIIPMVEGVKEQSLKMQIIKEEEWEKGIEELHKTAEHGGTFCYTFFKGWGTKEGHHHHHH” belongs “not failed”; to “MSLTIKLIAIDIDGTLLNEKNELAQETIDAVQAAKAQGIKVVLCTGRPLTGVQPYLDAMGISGDDQYAITFNGSVAQTISGKVLTNHSLTYEDYIDLEAWARKVRAHFQIETPDYIYTANKDISAYTIAESYLVRMLIRYREVSETPRDLTISKAMFVDYPQVIEQVKANMPQDFKDRFSVVQSAPYFIEVMNRRASKGGTLSELVDQLGLTADDVMTLGDQGNDLTMIKYAGLGVAMGNAIDEVKEAAQAVTLTNAENGVAAAIRKYALNEGHHHHHH”, “not failed”; to “MSLTMVSEVQPVSPASLDAPLENAVEIIETVISSLHQGDAPLVGQTDSGKIWMFRYGSAEVFVQLSGHTEEDFLTIWSPVLPLPVADELALYRKLLTLNWLTTFEAHFAIAEEQVQVVASRTLGGITAGEISRLITIVATLADDYDDALRAEFKGEGHHHHHH”, “not failed”.
Turning to “MSLTNHHPSSTGPQHPYRAGWIHFTNVAPILDSLELPPGVTAITGVPTQMNAALLSGEVDIANVSAVEFIRHADTLAALPDFSVAVLGPVYSVNLFHTCPLPELRRVALTSQSAMSVALLEVLLRQKGLSPVLERAEGTAESLLAAGYDGVLRIGDDALREWYGVVGPLTPERTMTSLPHTGRGITVTDLAQEWFDLTGHPFTFAVWAYRKDNPPPAALLQAMREARRRGIGHLAEVSQRHAEKLGLPERVVQHYLWNFRYHLEAPDRLGLREFADLAVPGHAELTFGAREEAEGHHHHHH”, the protein production result is “not failed”.
Turning to “MSLTRDAASITPARVRAHVFRYPVSTPVKTSFGTMHDRPAVLVEVEDSDGAVGWGEVWCNFPACGAEHRARLVETVLAPLLTARAFADPAQAFAHLEARTAVLAIQTGEPGPLAQAIAGLDIALCDLAARRAGQPLWAWLGGSGDRIGVYASGINPENPEDVVARKAAEGYRAFKLKVGFDDARDVRNALHVRELLGAATPLMADANQGWDLPRARQMAQRLGPAQLDWLEEPLRADRPAAEWAELAQAAPMPLAGGENIAGVAAFETALAARSLRVMQPDLAKWGGFSGCLPVARAVVAAGLRYCPHYLGAGIGLQASAHLLAAVPGLASPGLLEVDANDNPLRSLLSPALATLHEGRITLGGAPGLGVTPDLAALRAACAAREGHHHHHH”, the protein production entry is recorded as “not failed”.
The result for “MSLTTPTMIAAVVEEANGPFVLRKLARPQPAPGQVLVQIEASGTNPLDAKIRAGEAPHAQQPLPAILGMDLAGTVVAVGPEVDSFRVGDAVFGLTGGVGGLQGTHAQFAAVDARLLASKPAALTMRQASVLPLVFITAWEGLVDRAQVQDGQTVLIQGGGGGVGHVAIQIALARGARVFATARGSDLEYVRDLGATPIDASREPEDYAAEHTAGQGFDLVYDTLGGPVLDASFSAVKRFGHVVSCLGWGTHKLAPLSFKQATYSGVFTLHTLLANEGLAHFGEMLREADALVQTGKLAPRLDPRTFSIAEIGSAYDAVLGRNDVPRQRGKIAITVEGHHHHHH” reads “not failed”; that for “MSLTTVGIRGTFFDFVDDPWKHIGNEQAAARFHQDGLMVVTDGVIKAFGPYEKIAAAHPGVEITHIKDRIIVPGFIDGHIHLPQTRVLGAYGEQLLPWLQKSIYPEEIKYKDRNYAREGVKRFLDALLAAGTTTCQAFTSSSPVATEELFEEASRRNMRVIAGLTGIDRNAPAEFIDTPENFYRDSKRLIAQYHDKGRNLYAITPRFAFGASPELLKACQRLKHEHPDCWVNTHISENPAECSGVLVEHPDCQDYLGVYEKFDLVGPKFSGGHGVYLSNNEFRRMSKKGAAVVFCPCSNLFLGSGLFRLGRATDPEHRVKMSFGTDVGGGNRFSMISVLDDAYKVGMCNNTLLDGSIDPSRKDLAEAERNKLSPYRGFWSVTLGGAEGLYIDDKLGNFEPGKEADFVALDPNGGQLAQPWHQSLIADGAGPRTVDEAASMLFAVMMVGDDRCVDETWVMGKRLYKKSEGHHHHHH”, “not failed”.
Consider “MSMKGKETMSNEKIVVGKFGATYGIRGWLKVFSYTDNAESIFDYSPWYINQKGKWVEYKVESWKRHNKGMVAKLEGMDVREDAHLMTNFEIAIDPAVLPELSEDEFYWRELFGMHVVTTKGYDLGVVTDMLETGSNDVLVVKANLKDAFGQKERLIPFLEEQVIIKVDREAQRIEVDWDPGFLEHHHHHH”, for which the protein production entry is “not failed”.
The result for “MSMKILKASVFVIIVFFLMPLPVVAAKKGIYCGELKGSHYGPFDYMDRFNHSEQLKIVEDFHFTSDVEDLIRGSTSSTPAKDLNYTLHAWPNHHRALVSLFKYSIKEKSTRIKGLKYPVECYFDRAIRMNMKDVQVRSIYSAFLSHRGRNKEALEQLEVAANLEPDNATILYNLGLLYFKQKNYEKASHYAEKAYALDYPLPGLRNKLIQAGKWRGSASGRSGK” reads “failed”.
To “MSMTKSEVCVIIAAKNAARTIAVAIASALREPEAAEVVVVDDGSTDNTAEVARSADDGSGRLKVMRLDVNRGPSFARNAAIAGSKAPFISILDADDFFLEGRFRNLFAAADWDFAADNIMLIRDDATNDATKIVAPDFAADPEFLDFERFVEGNISRRRVQRGELGFLKPVISRAFLDRHRLRYDESLRLGEDYELYARAVAHGARFKVIRSCGYGAIVRADSLSGRHKTQDLKRLADADLALLAIDSLPEGSKAVLRRHERHVRDKYRLRNFLDVKAERGLASAAAYAFASQSNLVPIVQGVASDKLEALFRRVGLVSRQKRVPPLRFLMAGTSAGKER” belongs “failed”; to “MSNALKSIDFRTNKSKDAVIVVELASPAAIVDVKRVQEGLSIDLMNTSVKDEQLYLLDVKDFATVVESVEVFRDTSTTRLVAYIDEEYTHDYRLTGRYLEITVSKLKPNEKVPDKSILEKEGKLISINFQDIPVRNVLQLIADYNQFNLVVSDSVEGNLTLRLDGVPWQQVLDIILQVKGLDKRVDGNVILVAPTDELDLREKQQLEKQKLTEEMGELSSEIIKVNFAKASDIAEMINGEGNISMLSERGSMTIDERTNSLLIRELPENIAVIREIIESLDIPVKQVQIEARIVTISEGNMDELGIRWGFTSINGNNTVGGSIENNLATIGLYEGGGDGEGEEGGVGIDDFLNVNLAATNPNAASIAFQVAKLGSDTLLDLELSALQQESKAEIISSPRLITTNKKPAYIEQGTEIPYLESSSSGATSVTFKKAVLSLKVTPQITPDNRLVLDLSVTQDRPGKVVKTGTGEAMAIDTQRIGTQVLVNNGETVVLGGIFQHSITNSVDKVPLLGDLPLLGALFRRSYENVGKSELLIFVTPKVVIQLEHHHHHH”, “not failed”.
To “MSNANPDTTAAEAHRRRTFAVIAHPDAGKSTLTEALALHAHIISEAGATHGKAGRKATVSDWMEMEKDRGISIASSALQFEYAPEGHAGEPFMINLVDTPGHADFSEDTYRVLMAVDAAVMLIDAAKGLEPQTLQLFRVCKARGLPIITVINKWDRVGRTPLELVDEIVKEIELQPTPLFWPVGEAGDFRGLARINNDGEVEEYIHFTRTAGGSTIAPEDFYTPEEAIEREGDVWENATEEAELLAADGAVHDQELFLNCTTSPLIFASAMLNFGVHQILDTLCQLAPSPAGRDADPKALEAATSAMDDHRDTTDDFSGVVFKVQAGMDKNHRDTLAFMRVVSGEFDRGMQVTHSQSGRSFSTKYALTVFGRTRSTVETAFPGDIVGLVNAGALAPGDTIFEGRKIQYPPMPKFAPEHFRILRAKSLGKYKQFRKALEQLDSEGVVQILKNDLRGDANPVMAAVGPMQFEVMQARMEVEYNVETVADPIPYSVARRTTAETAPELAKQRGVEIFTRTDGELIALFSDKWRLSFIEKEHPDFVLESLVAE” belongs “failed”.
